Experimental findings from patent US20150274840A1 (GENEFRONTIER, published 2015) are described below.

Assay [1] concerns the target T1, fusion protein of region 399-540 of human ADAM28s added to the C-terminal of MBP (human).
T1 chain: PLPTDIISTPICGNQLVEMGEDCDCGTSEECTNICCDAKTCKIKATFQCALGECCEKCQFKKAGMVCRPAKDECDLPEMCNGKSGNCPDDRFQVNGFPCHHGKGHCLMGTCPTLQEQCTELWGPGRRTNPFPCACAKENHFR
The assay is described as follows: Western blotting of MBP fusion proteins. Background: A western blot detects proteins with antibodies after separation by electrophoresis.

For assay [2], the target named is T2, fusion protein of region 491-540 of human ADAM28s added to the C-terminal of MBP (human).
T2 construct: also called MBP-ADAM28s 491-540
T2 chain: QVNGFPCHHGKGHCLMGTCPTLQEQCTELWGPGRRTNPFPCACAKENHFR
The assay can be described thus: Western blotting of MBP fusion proteins.

The target of assay [3] is T3, peptide #26 of the human ADAM28s peptide array (ENFSKWRGSVLS) (human).
T3 construct: 12-mer partial peptide of human ADAM28s, immobilized on an array
T3 peptide: ENFSKWRGSVLS
The assay can be described thus: peptide array, HRP-labeled antibody. The method, then:
(§1) Specifically, as shown below, a peptide array consisting of peptides having the residue number of 12 amino acid residues with an offset of 3 amino acid residues were prepared for a sequence covering from the protease domain to the C-terminal of human ADAM28s. HRP-labeled anti-human ADAM28s antibody was reacted with the peptide array.

For assay [4], the target named is T4, peptide #25 of the human ADAM28s peptide array (FTLENFSKWRGS) (human).
T4 construct: 12-mer partial peptide of human ADAM28s, immobilized on an array
T4 peptide: FTLENFSKWRGS
The assay is described as follows: peptide array, HRP-labeled antibody. How it is done: as §1

B1: anti-human ADAM28 human antibody 211-14 (antibody, V domains shown)
VH: QVQLQQSGPGLVKPSQTLSLTCAISGDSVSSNTAAWGWIRQSPGRGLEWLGVIYYRSKWYNDYAVSVKSRITINPDTSKNQFSLQLNSVTPEDTAVYYCARYKESIPEYGFDFWGQGTLVTVSS
VL: DIVMTQSPLSLPVTPGEPASISCRSSQSLLYSNGYIYLNWYLQKPGQSPQLLIYLGSNRASGVPDRFSGSGSGTDFTLKISRVEAEDVGVYYCFQYGGSPLTFGQGTKVEIKR
notes: Clone from the HuCAL GOLD phage library, first made as Fab, then converted to IgG (heavy chain constant region IgG1)
B1: the binding result in assay [1] and in assay [2] was “binds” each time.

B2: anti-human ADAM28 human antibody 211-12 (antibody, V domains shown)
VH: QVQLVQSGAEVKKPGESLKISCKGSGYSFTSYWIAWVRQMPGKGLEWMGIIYPSDSYTRYSPSFQGQVTISADKSISTAYLQWSSLKASDTAMYYCARWSWMGRGFDNWGQGTLVTVSS
VL: DIQMTQSPSSLSASVGDRVTITCRASQDISSYLNWYQQKPGKAPKLLIYGVSTLQSGVPSRFSGSGSGTDFTLTISSLQPEDFATYYCLQYDSLPSTFGQGTKVEIKR
notes: Clone from the HuCAL GOLD phage library, first made as Fab, then converted to IgG (heavy chain constant region IgG1) in HEK293T cells; It was HRP-labeled in the peptide array
For B2, the binding result in assay [3] and in assay [4] was “binds” each time.
